IC50 data for one sequence are collected here from publication PMC5963859.

The subject of this series is GST-MBNL1 (GST-MBNL1Δ101 in Methods). In words: EMSA. The following applies: EMSA: 0.75 mM MgCl2, 50 mM Tris-HCl pH 7.0, 75 mM NaCl, 37.5 mM KCl, 5.25 mM DTT, 0.1 mg/ml BSA, 0.1 mg/ml bulk tRNA, RNasin 0.4 U/ul; 20 min on ice, gel at …. A general note: Mobility shift assays separate free from complexed probe on a gel.

Usually IC50 stands for the concentration that gives 50% inhibition. A lower IC50 goes with greater potency.

In the case of CUG 10x RNA, the IC50 came out at 100 nM.
